*1 amine or outer side, *2 acyl side, *3 side chain or, on linkers, in order; H or OH if unused. Where no end group is shown, it is not given here. Side-chain parts run from the residue outwards. [ ]: non-standard residue; d: D form. The star is where a group is joined. αMePhe(2-F) = C[C@](N)(Cc1ccccc1F)C(=O)O; γGlu = O=C(O)[C@H](CCC(=O)[*:2])N[*:1]; C14 diacid = O=C(O)CCCCCCCCCCCCC(=O)*; αMeY = C[C@](N)(Cc1ccc(O)cc1)C(=O)O; αMeL = CC(C)C[C@](C)(N)C(=O)O; Nle = CCCC[C@H](N)C(=O)O; Orn = NCCC[C@H](N)C(=O)O; AEEA = NCCOCCOCC(=O)O; Aib = CC(C)(N)C(=O)O
T1: human GIP receptor (human, UniProt P48546 22-466)
T1 sequence (looked up): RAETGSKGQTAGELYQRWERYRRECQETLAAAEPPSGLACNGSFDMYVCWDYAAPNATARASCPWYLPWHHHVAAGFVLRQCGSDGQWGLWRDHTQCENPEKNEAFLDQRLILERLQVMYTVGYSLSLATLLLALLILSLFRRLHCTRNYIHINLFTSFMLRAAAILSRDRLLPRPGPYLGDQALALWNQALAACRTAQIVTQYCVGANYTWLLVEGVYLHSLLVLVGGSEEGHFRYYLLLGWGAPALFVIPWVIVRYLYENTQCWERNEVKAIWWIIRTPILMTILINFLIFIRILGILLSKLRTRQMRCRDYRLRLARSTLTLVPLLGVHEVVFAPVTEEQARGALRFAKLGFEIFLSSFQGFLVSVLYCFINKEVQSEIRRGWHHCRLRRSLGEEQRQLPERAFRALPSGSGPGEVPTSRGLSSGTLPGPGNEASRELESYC


What was measured:
Experiment in all cases: cell-based or functional assay
human GLP-1 receptor = human GLP-1 receptor (human, UniProt P43220 24-463)
human GIP receptor = target: T1, human GIP receptor
human glucagon receptor = human glucagon receptor (human, UniProt P47871 26-477)

Binder | cAMP EC50 (1.0% HSA) (human GLP-1 receptor) [nM] | cAMP EC50 (1.0% HSA) (human GIP receptor) [nM] | cAMP EC50 (1.0% HSA) (human glucagon receptor) [nM] | cAMP Emax (1.0% HSA) (human GIP receptor) [%]
YXEGTXTSDXSIXLDXIAQXKFIXXLIKGGPSSGAPPPS (Y-Aib-EGT-αMeF(2F)-TSD-4Pa1-SI-αMeL-LD-Orn-IAQ-Aib-K((2-[2-(2-Amino-ethoxy)-ethoxy]-acetyl)2-(γ-Glu)-(10-(4-carboxyphenoxy)decanoyl))FI-(D-Glu)-αMeY-LIK((2-[2-(2-Amino-ethoxy)-ethoxy]-acetyl)2-(γ-Glu)-(10-(4-carboxyphenoxy)decanoyl))GGPSSGAPPPS-NH2) [Example 275] | 33.5 | 0.926 | > 9950 | 
YXEGTXTSDXSIXLDXIAQXEFIKXLIKGGPSSGAPPPS (Y-Aib-EGT-αMeF(2F)-TSD-hTyr-SI-αMeL-LD-Orn-IAQ-Aib-EFIK((2-[2-(2-Amino-ethoxy)-ethoxy]-acetyl)2-(γ-Glu)-CO-(CH2)12-CO2H)-αMeY-LIK((2-[2-(2-Amino-ethoxy)-ethoxy]-acetyl)2-(γ-Glu)-CO-(CH2)12-CO2H)GGPSSGAPPPS-NH2) [Example 270] | 32.6 | 3.8 | > 9950 | 80.9
YXEGTXTSDXSIXLDXIAQXKFIXXLIKGGPSSGAPPPS (Y-Aib-EGT-αMeF(2F)-TSD-2Nal-SI-αMeL-LD-Orn-IAQ-Aib-K((2-[2-(2-Amino-ethoxy)-ethoxy]-acetyl)2-(γ-Glu)-(10-(4-carboxyphenoxy)decanoyl))FI-(D-Glu)-αMeY-LIK((2-[2-(2-Amino-ethoxy)-ethoxy]-acetyl)2-(γ-Glu)-(10-(4-carboxyphenoxy)decanoyl))GGPSSGAPPPS-NH2) [Example 284] | 137 | 8.38 | > 9950 | 
YXEGTXTSDXSIXLDXKAQXKFIXXLIEGGPSSGAPPPS (Y-Aib-EGT-αMeF(2F)-TSD-hTyr-SI-αMeL-LD-Orn-K((2-[2-(2-Amino-ethoxy)-ethoxy]-acetyl)2-CO-(CH2)12-CO2H)AQ-Aib-K((2-[2-(2-Amino-ethoxy)-ethoxy]-acetyl)2-CO-(CH2)12-CO2H)FI-(D-Glu)-αMeY-LIEGGPSSGAPPPS-NH2 …) [Example 272] | 4.72 | 0.561 | > 9950 | 81.2
YXEGTXTSDXSIXLDXKAQXKFIXXLIEGGPSSGAPPPS (Y-Aib-EGT-αMeF(2F)-TSD-OMeY-SI-αMeL-LD-Orn-K((2-[2-(2-Amino-ethoxy)-ethoxy]-acetyl)2-(γ-Glu)-CO-(CH2)12-CO2H)AQ-Aib-K((2-[2-(2-Amino-ethoxy)-ethoxy]-acetyl)2-(γ-Glu)-CO-(CH2)12-CO2H)FI-(D-Glu)-αMeY-LIEGGPSSGAPPPS-NH2) [Example 259] | 28.9 | 2.34 | > 9950 | 66.4
YXEGTXTSDXSIXLDXKAQXEFIXXLIKGGPSSGAPPPS (Y-Aib-EGT-αMeF(2F)-TSD-OMeY-SI-αMeL-LD-Orn-K((2-[2-(2-Amino-ethoxy)-ethoxy]-acetyl)2-CO-(CH2)12-CO2H)AQ-Aib-EFI-(D-Glu)-αMeY-LIK((2-[2-(2-Amino-ethoxy)-ethoxy]-acetyl)2-CO-(CH2)12-CO2H)GGPSSGAPPPS-NH2 …) [Example 266] | 5.83 | 0.575 | > 9950 | 
YXEGTXTSDXSIXLDXKAQXEFIXXLIKGGPSSGAPPPS (Y-Aib-EGT-αMeF(2F)-TSD-OMeY-SI-αMeL-LD-Orn-K((2-[2-(2-Amino-ethoxy)-ethoxy]-acetyl)2-(γ-Glu)-CO-(CH2)12-CO2H)AQ-Aib-EFI-(D-Glu)-αMeY-LIK((2-[2-(2-Amino-ethoxy)-ethoxy]-acetyl)2-(γ-Glu)-CO-(CH2)12-CO2H)GGPSSGAPPPS-NH2) [Example 260] | 32 | 3.27 | > 9950 | 
Y[Aib]EGT[αMePhe(2-F)]TSD[Nle]SI[αMeL]LD[Orn]IAQ[Aib]EFIK([AEEA-AEEA-γGlu-C14 diacid])[αMeY]LIK([AEEA-AEEA-γGlu-C14 diacid])GGPSSGAPPPS-NH2 (N-terminus assumed; SMILES CCCC[C@H](NC(=O)[C@H](CC(=O)O)NC(=O)[C@H](CO)NC(=O)[C@@H](NC(=O)[C@](C)(Cc1ccccc1F)NC(=O)[C@@H](NC(=O)CNC(=O)[C@H](CCC(=O)O)NC(=O)C(C)(C)NC(=O)[C@@H](N)Cc1ccc(O)cc1)[C@@H](C)O)[C@@H](C)O)C(=O)N[C@@H](CO)C(=O)N[C@H](C(=O)N[C@@](C)(CC(C)C)C(=O)N[C@@H](CC(C)C)C(=O)N[C@@H](CC(=O)O)C(=O)N[C@@H](CCCN)C(=O)N[C@H](C(=O)N[C@@H](C)C(=O)N[C@@H](CCC(N)=O)C(=O)NC(C)(C)C(=O)N[C@@H](CCC(=O)O)C(=O)N[C@@H](Cc1ccccc1)C(=O)N[C@H](C(=O)N[C@@H](CCCCNC(=O)COCCOCCNC(=O)COCCOCCNC(=O)CC[C@H](NC(=O)CCCCCCCCCCCCC(=O)O)C(=O)O)C(=O)N[C@@](C)(Cc1ccc(O)cc1)C(=O)N[C@@H](CC(C)C)C(=O)N[C@H](C(=O)N[C@@H](CCCCNC(=O)COCCOCCNC(=O)COCCOCCNC(=O)CC[C@H](NC(=O)CCCCCCCCCCCCC(=O)O)C(=O)O)C(=O)NCC(=O)NCC(=O)N1CCC[C@H]1C(=O)N[C@@H](CO)C(=O)N[C@@H](CO)C(=O)NCC(=O)N[C@@H](C)C(=O)N1CCC[C@H]1C(=O)N1CCC[C@H]1C(=O)N1CCC[C@H]1C(=O)N[C@@H](CO)C(N)=O)[C@@H](C)CC)[C@@H](C)CC)[C@@H](C)CC)[C@@H](C)CC) [Example 269] | 46.5 | 2.65 | > 9950 | 
